Reference: a protein production outcome set (Wang et al. 2014)

Assay: label from the status in PepcDB records
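Note: failed if final PepcDB status was selected cloned or expressed and not failed if soluble or beyond.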

Sequence	protein production
MEPMQVVKQRRDAALNALVSGVPFIRFLNITFDRRGDELTGVLNFDDKLIGNPFLPAIHGGVTAAFLEVTAVITLSWAHLFERIESGDLAPEDILTDENMRFPKTIDFTIDYLRSGLPRDAYARAYISRAGRRYASVRVEAWQDHHDKLYAQGTGHFLMPLEHHHHHH	failed
MEPNCVQFLENRTILVTGASGFLAKVLVERILRLQPNVKRLYLLVRASDKKSAEQRYDVALGINTFGAINVLNFAKKCVKPKLLLHVSTVYVCGERPGHIVEKHFAMGESLNGKNKVDINTERRLADQKSKQFKEQGCSEEETEQAMKDFGLKRARLYGWPNTYVFTKAMGEMLLGHYRETMPIVIIRPTIITSTFSDPFPGWIEGLKTVDSVIIFYGKGILKCFLVDQKTVCDIIPVDMVVNAMIAIAADHCHDSGSHTVYHVGSSNQNPVIYKQIYEMMSRYFMKSPLVGRNGMLIVPKVTRISTLARFRVYTNLRYKLPIQILGLLSVISLSQRDKFALHNRKFKMAMRLVKLYKPYVLFKGIFDDKNMETLRIKNEAKDMEKLFGTNPKCIDWEDYFMIRISLAS	failed
MEPNKDDNVSLAATAQISAPPVLQDASSLPGFSAIPPVVPPSFPPPMAPIPMMPHPPVARPPTFRPPVSQNGGVKTSDSDSESDDEHIEISEESKQVRERQEKALQDLLVKRRAAAMAVPTNDKAVRDRLRRLGEPITLFGEQEMERRARLTQLLTRYDINGQLDKLVKDHEEDVTPKEEVDDEVLEYPFFTEGPKELREARIEIAKFSVKRAAVRIQRAKRRRDDPDEDMDAETKWALKHAKHMALDCSNFGDDRPLTGCSFSRDGKILATCSLSGVTKLWEMPQVTNTIAVLKDHKERATDVVFSPVDDCLATASADRTAKLWKTDGTLLQTFEGHLDRLARVAFHPSGKYLGTTSYDKTWRLWDINTGAELLLQEGHSRSVYGIAFQQDGALAASCGLDSLARVWDLRTGRSILVFQGHIKPVFSVNFSPNGYHLASGGEDNQCRIWDLRMRKSLYIIPAHANLVSQVKYEPQEGYFLATASYDMKVNIWSGRDFSLVKSLAGHESKVASLDITADSSCIATVSHDRTIKLWTSSGNDDEDEEKETMDIDL	failed
MEPQKESNQNYLPYPPHPQQDHDEIDLRELFKALWEGKWIVIATTFVIAVSAVLYALSLPNIYKADALLAPAESSNGGGLSKMAGQLGGLAALAGVNLGASESSQTDLAVQVMRSRQFINTFINKHDLLVPLMAGKDWDLSNNKLILDEELYNPNTGEWLRDAKGLRGATPTAQEAFEVFSKEVLSINQDKESGLYTVSMKNYSPYIAQQWVNWLIEDINKAMRERTIAETSQNLAYLNTQLQKTAVTDMQSTFYKLIEEQTKSLMLAEVQEEFVFKVVDPAVVPELKDSPKRVLICVLGILLGVMLGVAIVLIRIVFRKEDTENLEPRT	failed
MEPSAKHLQLQTLLSERHAYLMEGNREAMHQLLSSDFSFIDGQGRQFDAETYLDHYVDPDQIQWSNQISESMVVEVFETTALVQEIVEDHFSYGRSMYIGRFRSVSLYHWANEGWKWHFHQLTPLDPS	not failed
MEQLQVGQVTLTWLNGGVTHLDGGAMFGVVPKPLWSKKYPPNDQNQIELRTDPILVEAGGKRLLIESGIGNGKLTDKQKRNFGVTEESSLDESLAALGLTRGDIDIVIMTHLHFDHACGLTVWEDGRLVPAFPRAAIITSDVEWEEMRAPNIRSRNTYWKENWEPIAEQVIPFTKETEVVSGIRLIHTGGHSAGHAIVLIESDGEMAIHLGDLLGTHAHQNVLWVMAYDDYPMDSIFAKQRWLPYGIERNAWFTFYHDAYYRAVKWREDGTIAEQVKRNRPTLLEHHHHHH	not failed
MEQMKITNLTGEQISFQLILHSGNARSCIIQSLRAYKEGKKDEADALIAKAEQDLSAAHDIHFQMIQKESGGEATAFSLLLMHAEDHLMSTLSMKELVKEMLDLFKTKNI	failed
MEQNITLKDRSKLVISGVEHIYSFNDKRVELKTSVGEMVIEGENLDMSKLSIDENIISIDGTINSMVYAKPKKPQESFLKKVFR	failed
MEQQKDYIELYENEELIEIREARMDDLDTIAKFNYNLAKETEGKELDMDVLTKGVKALLLDERKGKYHVYTVFDKVVAQIMYTYEWSDWRNGNFLWIQSVYVDKEYRRKGIFNYLFNYIKNICDKDENIVGMRLYVEKENINAKATYESLNMYECDYNMYEYEVIHS	failed
MEQRIWDLFGISADGNISRGNSGCVHTRNNKKEGDVLKVLTYVMLASVILFTTTYLILYLTYAKPVEIDVPFYGAPRGYTTITYEEVILPLTGKYKIENCYVQDSRSIYSNEGYLSERGVRIIVGNYTEDVYVRLIPQKMIPSEIIFLLMVGGVLGYVGDRMFKFK	failed
MERAAFGKLVQALRREHRDEKGRVWTQEVLAERTQLPKRTIERIENGSLAHLDADILLRLADALELTIGERREFFFAATGIIEQKSATYKRSPEESLQYLIDMIRNMNVPAFVTDQYVNIIAANMITIRFFNIPMELIETAPLLPHGYNLMRVVFGTEYDFRRVVGTMWDEVARHNMQLFRAISLRVRADGYFVELLDNLMQYREFKRFWERAHLETEDTSAENFWYQYTHPVYGLLSYVSSRSQIPTSMGLLSMHTYIPLSPATTDLFAKLSTVANQDVIRLAPWPRSNG	not failed
MERAFLRYVPILAFITIMTMYVEMVILPSLPEIENQFSITSSEASWVLSSETLAGMTLAPFLGKLADSYGRKKVLISILVVYILSVFLTAISPNYSILLISRSIQGIGLSINPIAYTILRERIPDRELPIAQGIIASTFAIGAAVALPIGSYISQYFSWEFAYETAIPLLILSTIIIYVILPSSESKGSDRKIDDVGVILLSLSFLILGIGLTEAPTWGWTSLQFFTSLLLSILLFYLFALHISKSRNPIIDPYDFKNPNVAVPLISSFITGFGLFLTFQSLVFIFELPSPIGYGMTILQTGETMAPIALIILIAGPFFGRLVTKIGYMKVILTSSSVSSFLLLFLAYIISLRISVLELMGFLSLILFFISGMNVTRVTLLIASSKRERMSTLTGTNTSMRLMGNTLGPIVVGSLEDTFKTPIFEGYLNNIPIFAFVPSRLAFEYAFLISMATTVLVTILATRIRERPSTTTYA	failed
MERDGCAGGGSRGGEGGRAPREGPAGNGRDRGRSHAAEAPGDPQAAASLLAPMDVGEEPLEKAARARTAKDPNTYKVLSLVLSVCVLTTILGCIFGLKPSCAKEVKSCKGRCFERTFGNCRCDAACVELGNCCLDYQETCIEPEHIWTCNKFRCGEKRLTRSLCACSDDCKDKGDCCINYSSVCQGEKSWVEEPCESINEPQCPAGFETPPTLLFSLDGFRAEYLHTWGGLLPVISKLKKCGTYTKNMRPVYPTKTFPNHYSIVTGLYPESHGIIDNKMYDPKMNASFSLKSKEKFNPEWYKGEPIWVTAKYQGLKSGTFFWPGSDVEINGIFPDIYKMYNGSVPFEERILAVLQWLQLPKDERPHFYTLYLEEPDSSGHSYGPVSSEVIKALQRVDGMVGMLMDGLKELNLHRCLNLILISDHGMEQGSCKKYIYLNKYLGDVKNIKVIYGPAARLRPSDVPDKYYSFNYEGIARNLSCREPNQHFKPYLKHFLPKRLHFAKSDRIEPLTFYLDPQWQLALNPSERKYCGSGFHGSDNVFSNMQALFVGYGPGFKHGIEADTFENIEVYNLMCDLLNLTPAPNNGTHGSLNHLLKNPVYTPKHPKEVHPLVQCPFTRNPRDNLGCSCNPSILPIEDFQTQFNLTVAEEKIIKHETLPYGRPRVLQKENTICLLSQHQFMSGYSQDILMPLWTSYTVDRNDSFSTEDFSNCLYQDFRIPLSPVHKCSFYKNNTKVSYGFLSPPQLNKNSSGIYSEALLTTNIVPMYQSFQVIWRYFHDTLLRKYAEERNGVNVVSGPVFDFDYDGRCDSLENLRQKRRVIRNQEILIPTHFFIVLTSCKDTSQTPLHCENLDTLAFILPHRTDNSESCVHGKHDSSWVEELLMLHRARITDVEHITGLSFYQQRKEPVSDILKLKTHLPTFSQED	failed
MERHEEIKKGAWIGILGNTVLAVLKILVGLLTGSYAILADGIDTSTDIFTSLVILLSSRISGKPPDETHPYGHERAETIASKIISFVMFYAGASLLVESVKRLVKQEFSLELTLTAFIVVGISVAGKTFLFLYKLSLGKRLKSSATISDALNMRNDIMISGTVLAGMVAMKTFGWWWLDSLLAIFVSIMILRTSFSVFYEAAYELMDGMKRTELDMYDDIFAVLERFPNVHNPHRVRIRRVGTKYFIEMDIEVDGKMSVKDAHELTVKIRKEMLKRRDDIEDVTIHVEPLGNVEEEGFGLKKGEKK	failed
MERHQHLLSEYQQILTLSEQMLVLATEGNWDALVDLEMTYLKAVESTANITISSCSSLMLQDLLREKLRAILDNEIEIKRLLQLRLDRLSDLVGQSTKQQAVNNTYGQFPDHALLLGETQ	not failed
MESDRNLNYINLFMIFVNLIIIVFTSEIMTITLYKISSEFMARDFLDQITVIPWKPQNITIVSIGAYIILIILITVKKKYAKFLNKWEIAALLLCEIFFSVAIMTALNMSYNGIILFIIADLVTNTKDKSNKIIFLILMIIIYIFSVYDFISLKIKMVSFENFLYYYTANRRSYLMELKSILNSINIIVFILYMIVFIQVQMRENEKITSLNKKLNLANEKLEVMNVQLKEYAVKIGSMAETRERNRMAREIHDTLGHALTGISVGIDACLTTIDVSKELTKKQLNIIADVAREAIKDVRRSVKKLRPDALENSSLQDALNNMISRISKATKTKVFLNANIKLLKFGHDEEDTIYRIIQEGITNSIRHGQAEEIYIDMIRRDKQLNITIRDNGKGCANVEEGFGLRHIEERVKLLNGTVEYDGSDSFLITVNIPIRWGDGS	failed
MESIGLVEVNSIARGIEAADAMLKAAQVDLLEAKPVCPGKYIVLICGDVAAVQSSVTAGKTMAAHSVLDDFILPNVHPQVLTAISAATPLTLIKALGIIETFSIASLIVAADTAAKTGQVDLVEIRIGMGIGGKSFVTLTGDVASVESSVAAGVMLASERGMLVDKVVIPSPHDHLKRCLC	not failed
MESITEWDLGSLRTYYSVEPSENFQEDEFLDFNLVPCLQTELWKAQTRIKELEAEKFKSEETIRCLIRNQRNEKEETTNPFVDYLKEKLSKEREEKKRVKAENSRLKKKILDMESSVNRLRRERDTMEKVCEELVTRIDELKVNTRRVWDETEEERQMLQMAEMWREERVRVKFMDAKLALQEKYEEMNLFVVELEKCLETAREVGGIEEKRLRHGEGLIKMAKSMEVVDSKIDFERFEFVSDEGNV	failed
MESITQIYRIGYGPSSSHTIGPRRAAEMFLDRNPRATSFRVTLYGSLAATGKGHLTDAAILAVLEAKAPTEIVWKPEIFQNFHPNGMLFESFDKEGKQLDDWLIYSIGGGVLANEHFNEQ	not failed
MESITVTELKEKILDANPVNIVDVRTDQETAMGIIPGAETIPMNSIPDNLNYFNDNETYYIICKAGGRSAQVVQYLEQNGVNAVNVEGGMDEFGDEGLDIKSILEHHHHHH	not failed
MESKEERALNNLIVENVNQENDEKDEKEQVANKGEPLALPLNVSEYCVPRGNRRRFRVRQPILQYRWDIMHRLGEPQARMREENMERIGEEVRQLMEKLREKQLSHSLRAVSTDPPHHDHHDEFCLMP	not failed
MESRWNDEDAARFVEAARAEGQSEALGLRIYTSRLIGSDPDLVLHGGGNTSVKIRSDEGEQLMHIKGSGWDLDTIEAPGLPAVRLASLLEARNTPKLSDPDMVLLLRASLIEKDAPNPSVEALLHAFIPFDYVDHTHATAVLALADQPNMRDAIRRIYGDRLAYVPYVMPGFDLSIAADRIYRSHSDCEGLWLENHGLFSFANDARASYDLMIEFVTLAEQELARAGVALSGPQPNDGER	failed
METELVTYKEKNVQMSMLEVIGMIGIIFGVMYGIGYLNFLYEFSLYPWYVNHLISPFTFCMIIVMYAPARNYCVQLVKSIQFNHFKHYVTIVMTMIVLLIYLAVLNLVLPHGLGVEGSNIVIEPTKNEIILYVVVLTIFAPIWEELVFRGMFFMKLSQRFSTLSSAVISAFIFTLGHPLTVGSILYIFGIGICLAYTYKKTNNLLVPIGIHVLNNSFNLLVNFQL	failed
